# Reference: publication PMC13079258, “Impact of Ser81 phosphorylation on alanine: glyoxylate aminotransferase associated with Primary hyperoxaluria type I” (Molecular Biomedicine, 2026)
# Substitutions are numbered along the chain they refer to. Names and notes keep the numbering of the source.
# T1: AGT (alanine:glyoxylate aminotransferase 1), AGT WT (Homo sapiens, UniProt P21549)
# T1 construct: gene AGXT; apo-form prepared with L-alanine; dimer
# T1 sequence (P21549 1-392): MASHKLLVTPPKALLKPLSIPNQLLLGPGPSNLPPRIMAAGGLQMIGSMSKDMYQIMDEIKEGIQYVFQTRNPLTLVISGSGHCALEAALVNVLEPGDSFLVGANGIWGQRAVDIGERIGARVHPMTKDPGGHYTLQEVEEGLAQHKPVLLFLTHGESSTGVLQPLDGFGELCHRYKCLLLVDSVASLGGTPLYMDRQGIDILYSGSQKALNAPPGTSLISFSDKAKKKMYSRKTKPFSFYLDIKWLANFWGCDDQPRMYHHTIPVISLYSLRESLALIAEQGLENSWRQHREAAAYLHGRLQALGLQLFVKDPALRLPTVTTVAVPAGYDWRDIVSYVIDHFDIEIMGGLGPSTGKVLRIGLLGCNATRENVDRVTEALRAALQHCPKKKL
# B1: Alanine:glyoxylate aminotransferase (AGT) WT (enzyme, human, UniProt P21549 1-392, looked up)
# chain: T1 sequence (P21549 1-392)
# notes: also called wild-type; major allele
# B2: AGT LM-p.I244T p.S81D (enzyme, human, UniProt P21549 1-392, looked up)
# chain: T1 sequence (P21549 1-392) with P11L, S81D, I244T, I340M
# notes: Alanine:glyoxylate aminotransferase (AGT), human, LM-p.I244T background with the phosphomimetic S81D; site-directed mutant of the pCOLDII construct of m4; also called set D81
# B3: AGT LM p.S81A (enzyme, human, UniProt P21549 1-392, looked up)
# chain: T1 sequence (P21549 1-392) with P11L, S81A, I340M
# notes: Alanine:glyoxylate aminotransferase (AGT), human, minor allele (LM) background with S81A; site-directed mutant of the pCOLDII construct of m2; also called set A81
# B4: AGT LM-p.I244T p.S81A (enzyme, human, UniProt P21549 1-392, looked up)
# chain: T1 sequence (P21549 1-392) with P11L, S81A, I244T, I340M
# notes: Alanine:glyoxylate aminotransferase (AGT), human, LM-p.I244T background with S81A; site-directed mutant of the pCOLDII construct of m4; also called set A81
# B5: AGT LM-p.G170R p.S81A (enzyme, human, UniProt P21549 1-392, looked up)
# chain: T1 sequence (P21549 1-392) with P11L, S81A, G170R, I340M
# notes: Alanine:glyoxylate aminotransferase (AGT), human, LM-p.G170R background with S81A; site-directed mutant of the pCOLDII construct of m3; also called set A81
# B6: AGT LM-p.G170R (enzyme, human, UniProt P21549 1-392, looked up)
# chain: T1 sequence (P21549 1-392) with P11L, G170R, I340M
# notes: Alanine:glyoxylate aminotransferase (AGT), human, minor allele (LM) with the PH1-associated variant p.G170R; also called set S81
# B7: AGT WT p.S81A (enzyme, human, UniProt P21549 1-392, looked up)
# chain: T1 sequence (P21549 1-392) with S81A
# notes: Alanine:glyoxylate aminotransferase (AGT), human, wild-type background with S81A; site-directed mutant of the pCOLDII construct of m1; also called set A81
# B8: AGT LM-p.G170R p.S81D (enzyme, human, UniProt P21549 1-392, looked up)
# chain: T1 sequence (P21549 1-392) with P11L, S81D, G170R, I340M
# notes: Alanine:glyoxylate aminotransferase (AGT), human, LM-p.G170R background with the phosphomimetic S81D; site-directed mutant of the pCOLDII construct of m3; also called set D81
# B9: AGT WT p.S81D (enzyme, human, UniProt P21549 1-392, looked up)
# chain: T1 sequence (P21549 1-392) with S81D
# notes: Alanine:glyoxylate aminotransferase (AGT), human, wild-type background with the phosphomimetic S81D; site-directed mutant of the pCOLDII construct of m1; also called set D81
# B10: AGT LM p.S81D (enzyme, human, UniProt P21549 1-392, looked up)
# chain: T1 sequence (P21549 1-392) with P11L, S81D, I340M
# notes: Alanine:glyoxylate aminotransferase (AGT), human, minor allele (LM) background with the phosphomimetic S81D; site-directed mutant of the pCOLDII construct of m2; also called set D81
# B11: AGT LM-p.I244T (enzyme, human, UniProt P21549 1-392, looked up)
# chain: T1 sequence (P21549 1-392) with P11L, I244T, I340M
# notes: Alanine:glyoxylate aminotransferase (AGT), human, minor allele (LM) with the PH1-associated variant p.I244T; also called set S81
# B12: AGT LM (minor allele, p.P11L and p.I340M) (enzyme, human, UniProt P21549 1-392, looked up)
# chain: T1 sequence (P21549 1-392) with P11L, I340M
# notes: Alanine:glyoxylate aminotransferase (AGT), human, common polymorphic minor allele (LM); also called set S81
# Target: the molecule itself
# Test: dynamic light scattering; 10 µM AGT as purified, 25 °C, 20 mM HEPES (sodium salt), 200 mM NaCl, pH 7.4; hydrodynamic radius assuming spherical particles (Stokes-Einstein)
# Conditions: not given
row,Molecule,stoichiometry N
1,B1,2
2,B2,2
3,B3,2
4,B4,2
5,B5,2
6,B6,2
7,B7,2
8,B8,2
9,B9,2
10,B10,2
11,B11,2
12,B12,2

# Target: T1, AGT (alanine:glyoxylate aminotransferase 1), AGT WT
# Test: absorption and near-UV/visible CD after L-alanine; 30-kDa filtration for released PMP
# Assay type: biochemical
# Conditions: 20 uM holo-AGT, 200 mM L-alanine, 25 C, HEPES 20 mM, NaCl 200 mM, pH 7.4
row,Molecule,absorption and near-UV/visible CD after L-alanine; 30-kDa filtration for release
1,Cc1ncc(COP(=O)(O)O)c(CN)c1O [PMP],"the CD signal associated with PMP formation, clearly present in S81 and A81 sets"
